Key:
[1] = target: human BMP-5 (human) (UniProt P22003); test: cell-based or functional assay
[2] = target: BMP-10; test: cell-based or functional assay
[3] = target: BMP-9; test: cell-based or functional assay
[4] = target: human BMP-7 (human) (UniProt P18075); test: cell-based or functional assay
[5] = target: BMP-2; test: cell-based or functional assay
[6] = target: BMP-4; test: cell-based or functional assay
[7] = target: human BMP-6 (human) (UniProt P22004); test: cell-based or functional assay
human BMP-6 (human), sequence (P22004 382-513 limits assumed): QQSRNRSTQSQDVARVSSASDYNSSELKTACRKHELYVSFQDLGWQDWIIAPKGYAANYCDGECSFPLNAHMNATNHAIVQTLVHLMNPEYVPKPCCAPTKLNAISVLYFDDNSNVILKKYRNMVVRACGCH

[8] = target: human BMP-7 (human) (UniProt P18075); test: SPR (BIAcore), BMP-7 immobilised on CM4 chip, antibody injected, 37 C
[9] = target: human BMP-6 (human) (UniProt P22004); test: SPR (BIAcore), BMP-6 immobilised on CM4 chip, antibody injected, 37 C

human BMP-7 (human), sequence (P18075 293-431 limits assumed): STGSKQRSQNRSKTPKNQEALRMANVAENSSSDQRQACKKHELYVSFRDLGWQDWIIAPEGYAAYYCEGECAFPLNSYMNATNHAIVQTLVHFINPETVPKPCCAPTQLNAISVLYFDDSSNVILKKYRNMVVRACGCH
human BMP-5 (human), sequence (P22003 317-454 limits assumed): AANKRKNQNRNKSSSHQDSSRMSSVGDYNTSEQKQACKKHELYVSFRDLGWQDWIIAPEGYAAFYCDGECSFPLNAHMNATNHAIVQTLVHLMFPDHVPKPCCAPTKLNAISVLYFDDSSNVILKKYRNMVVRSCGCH

Mean % Inh at 1000 nM, BMP-5 induced Hep Luc Assay [1] [%]	Mean % Inh at 1000 nM, BMP-10 induced Hep Luc Assay [2] [%]	Mean % Inh at 1000 nM, BMP-9 induced Hep Luc Assay [3] [%]	Mean % Inh at 1000 nM, BMP-7 induced Hep Luc Assay [4] [%]	Mean % Inh at 1000 nM, BMP-2 induced Hep Luc Assay [5] [%]	Mean % Inh at 1000 nM, BMP-4 induced Hep Luc Assay [6] [%]	Geometric Mean IC50 (nM), BMP-6 induced Hep Luc Assay (hepcidin promoter luciferase, HepProm Luc cells) [7] [nM]	Kd [8] [nM]	koff [8] [s⁻¹]	kon [8] [M⁻¹ s⁻¹]	Kd [9] [nM]	koff [9] [s⁻¹]	kon [9] [M⁻¹ s⁻¹]	Substance
-43.5	-87.2	-76.1	54.2	-50.6	-65.4	22.1	23.2	0.000793	34200	1	0.000187	187000	MAB507 (antibody)
2.5	5.4	2.8	-1.7	7.8	4.2								human IgGPAA4 control (antibody)
